Several values for one entry are separate records, joined by “and”; a condition that tells them apart may be missing. Equal values may be shown once. Read-outs that look alike come from different tables or passages of the source.
T1: recombinant human APRIL (human, UniProt O75888 105-250, limits assumed)
T1 sequence (looked up): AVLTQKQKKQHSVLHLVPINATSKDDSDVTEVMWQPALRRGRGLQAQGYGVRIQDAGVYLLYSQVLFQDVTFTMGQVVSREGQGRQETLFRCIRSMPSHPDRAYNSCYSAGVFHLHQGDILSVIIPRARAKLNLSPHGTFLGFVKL

T2: recombinant mouse APRIL (mouse, UniProt Q9D777 96-241, limits assumed)
T2 sequence (looked up): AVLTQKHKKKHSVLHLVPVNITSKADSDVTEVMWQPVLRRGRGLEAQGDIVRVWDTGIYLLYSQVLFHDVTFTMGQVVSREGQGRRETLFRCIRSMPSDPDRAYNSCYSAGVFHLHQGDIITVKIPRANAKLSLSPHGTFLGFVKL


What was measured:
recombinant human APRIL [1] = target: T1, recombinant human APRIL; assay: cell-based or functional assay
recombinant human BAFF [2] = target: T3, recombinant human BAFF (human, UniProt Q9Y275 134-285); assay: cell-based or functional assay
recombinant human BAFF [3] = target: T3, recombinant human BAFF; assay: SPR
recombinant human APRIL [4] = target: T1, recombinant human APRIL; assay: cell-based or functional assay; remark: listed apart in the source
recombinant human BAFF [5] = target: T3, recombinant human BAFF; assay: cell-based or functional assay; remark: listed apart in the source
recombinant human APRIL [6] = target: T1, recombinant human APRIL; assay: cell-based or functional assay; remark: listed apart in the source
recombinant human BAFF [7] = target: T3, recombinant human BAFF; assay: cell-based or functional assay; remark: listed apart in the source
recombinant mouse APRIL = target: T2, recombinant mouse APRIL; assay: cell-based or functional assay
recombinant mouse BAFF = recombinant mouse BAFF (mouse, UniProt Q9WU72 127-309); assay: cell-based or functional assay
BAFF 60-mer = BAFF 60-mer (human, UniProt Q9Y275 134-285, limits assumed); assay: cell-based or functional assay
[8] = target: single chain BAFF-APRIL-APRIL heterotrimer (BAA) (human, UniProt Q9Y275 140-285; O75888 111-250; O75888 111-250, limits assumed); assay: cell-based or functional assay
[9] = target: single chain APRIL-BAFF-BAFF heterotrimer (ABB) (human, UniProt O75888 111-250; Q9Y275 140-285; Q9Y275 140-285, limits assumed); assay: cell-based or functional assay
[10] = target: single chain BAFF homotrimer (BAFF-BAFF-BAFF) (human, UniProt Q9Y275 140-285, limits assumed); assay: cell-based or functional assay
recombinant human BAFF [11] = target: T3, recombinant human BAFF; assay: cell-based or functional assay; remark: listed apart in the source

recombinant mouse BAFF, sequence (Q9WU72 127-309 limits assumed): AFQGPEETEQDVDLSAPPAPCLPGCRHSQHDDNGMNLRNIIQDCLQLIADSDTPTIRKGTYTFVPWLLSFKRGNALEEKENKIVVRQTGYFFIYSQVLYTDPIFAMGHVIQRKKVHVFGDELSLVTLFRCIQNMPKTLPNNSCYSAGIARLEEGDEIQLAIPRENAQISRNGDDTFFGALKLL

Binder	IC50 (read off the curve), human APRIL, NF-κB luciferase reporter, Jurkat/TACI/NF-κB cells (recombinant human APRIL [1])	IC50 (read off the curve), human BAFF, NF-κB luciferase reporter, Jurkat/TACI/NF-κB cells (recombinant human BAFF [2])	Kd (recombinant human BAFF [3])	koff (recombinant human BAFF [3])	kon (recombinant human BAFF [3])	IC50, Jurkat/NF-kB/TACI reporter (recombinant human APRIL [4])	IC50, Jurkat/NF-kB/TACI reporter (recombinant human BAFF [5])	IC50, TACI/Jurkat/NF-kB reporter (recombinant human APRIL [6])	IC50, TACI/Jurkat/NF-kB reporter (recombinant human BAFF [7])	IC50, TACI/Jurkat/NF-kB reporter (recombinant mouse APRIL)	IC50, TACI/Jurkat/NF-kB reporter (recombinant mouse BAFF)	IC50, TACI/Jurkat/NF-kB reporter (BAFF 60-mer)	IC50, TACI/Jurkat/NF-kB reporter [8]	IC50, TACI/Jurkat/NF-kB reporter [9]	IC50, TACI/Jurkat/NF-kB reporter [10]	IC50, Jurkat/NF-kB/TACI reporter (recombinant human BAFF [11])
7 TACI CRD1/CRD2-Fc (Fc fusion) variant TACI CRD1/CRD2 - linker - Fc chain: VAMRSCPEEQYWDPLLGTCMSCKTICNHQSQRTCAAFCRSLSCRKEQGKFYDHLLRDCISCASICGQHPKQCDYFCENKLRSGSGGGGSEPKSSDKTHTCPPCPAPEAEGAPSVFLFPPKPKDTLMISRTPEVTCVVVDVSHEDPEVKFNWYVDGVEVHNAKTKPREEQYNSTYRVVSVLTVLHQDWLNGKEYKCKVSNKALPAPIEKTISKAKGQPREPQVYTLPPSRDELTKNQVSLTCLVKGFYPSDIAVEWESNGQPENNYKTTPPVLDSDGSFFLYSKLTVDKSRWQQGNVFSCSVMHEALHNHYTQKSLSLSPG	~3 nM	~2 nM														
Telitacicept (Fc fusion, The drug is a disulfide-linked Fc-fusion homodimer. Only one TACI ECD arm is given, and the Fc is left out., Commercial product (sourced through Clinigen; RemeGen); also called Telitacicept/Tai'ai (RemeGen); WT TACI-Fc (Telitacicept); not shown: Fc part of the commercial drug (Clinigen/RemeGen)) SRVDQEERFPQGLWTGVAMRSCPEEQYWDPLLGTCMSCKTICNHQSQRTCAAFCRSLSCRKEQGKFYDHLLRDCISCASICGQHPKQCAYFCENKLRSPVNLPPEL			0.491 nM	8.63e-05 s⁻¹	175000 M⁻¹ s⁻¹	17.2 nM	6.85 nM	53.9 nM	14.5 nM	15.5 nM	7.9 nM	> 100 nM	0.173 nM	0.408 nM	30.8 nM	9.17 nM and 7.3 nM
WT TACI 13-118-Fc based on the published telitacicept sequence (Fc fusion) SRVDQEERFPQGLWTGVAMRSCPEEQYWDPLLGTCMSCKTICNHQSQRTCAAFCRSLSCRKEQGKFYDHLLRDCISCASICGQHPKQCAYFCENKLRSPVNLPPEL								73.1 nM	19.6 nM	14.3 nM	9.4 nM					
